Test results as given in patent US20040002450A1, “Y17 - isolated molecules comprising epitopes containing sulfated moieties, antibodies to such epitopes, and uses thereof” (priority 2000, published 2004).

Key:
[1] = system: platelets, KG-1, Raji and T2 cells; assay: FACS binding profile on platelets and human cell lines
[2] = target: T1, glycocalicin (Homo sapiens, UniProt P07359); assay: Western blot on natural versus E. coli recombinant glycocalicin; format: binding
T1 construct: GC, amino acid 1 to amino acid 493 of GPIbα; made in house; host or cells: E. coli BL21 (DE3), total cell lysate
Protocol: The DNA fragment encoding for glycocalicin (GC, amino acid 1 to amino acid 493 of GPIbα) was cloned into an IPTG inducible prokaryotic vector cassette. E. coli (BL21 DE3) cells harboring the newly constructed plasmid were grown at 37° C. to O.D. 0.7-0.8, than at 37° C. for 3 hours for in the presence of IPTG for induction
SDS-polyacrylamide gel loaded either with semi-purified human platelet derived glycocalicin (“GC”) or with E. coli cell lysates (“total”) derived from induced and non-induced cells were analyzed. Western blot analysis was performed with biotinylated Y1-scFv, polyclonal rabbit anti-human glycocalicin antibody, commercially available mouse anti-human CD42 monoclonal antibody (SZ2 Immunotech, PM640 Serotec, HIP 1 Pharmigen, AN51 DAKO), and polyclonal antibody against the N-terminus of GPIbα (Sc-7071, Santa Cruz).

B1: Y1 scFv: fully human scFv clone binding platelets and myelogenous leukemia cells; SEQ ID NO: 25, heavy chain CDR3 SEQ ID NO: 8 (protein, listed as Homo sapiens)
scFv: MKYLLPTAAAGLLLLAAQPAMAEVQLVESGGGVVRPGGSLRLSCAASGFTFDDYGMSWVRQAPGKGLEWVSGINWNGGSTGYADSVKGRFTISRDNAKNSLYLQMNSLRAEDTAVYYCARMRAPVIWGQGTLVTVSRGGGGSGGGGSGGGGSSELTQDPAVSVALGQTVRITCQGDSLRSYYASWYQQKPGQAPVLVIYGKNNRPSGIPDRFSGSSSGNTASLTITGAQAEDEADYYCNSRDSSGNHVVFGGGTKLTVLGAAAEQKLISEEDLNGAA
- binding to Raji and T2 cells [1]: do not bind
- recognition of natural human platelet derived and bacterial recombinant glycocalicin [2]: recognized the natural human-derived glycocalicin, but did not recognize the bacterial derived recombinant platelet glycocalicin
